Here are results for 14 molecules from US5780265, “Kunitz type plasma kallikrein inhibitors” (Genentech, Inc., dated 1998).

B1: KALI-D (designed binder)
chain: VREVCSEQAEDGHCRAAHPRWYFDVTEGKCAPFFYGGCGGNRNNFDTEEYCAAVCGSA
B2: KALI-EY (designed binder)
chain: B1 chain with D11E, F34Y
B3: KALI-DY (designed binder)
chain: B1 chain with F34Y
B4: KALI-P (designed binder)
chain: B1 chain with D11P
B5: KALI-E (designed binder)
chain: B1 chain with D11E
B6: KALI-DV (designed binder)
chain: B1 chain with F34V
B7: KALI-PV (designed binder)
chain: B1 chain with D11P, F34V
B8: KALI-PY (designed binder)
chain: B1 chain with D11P, F34Y
modifications: not fully specified (bridges); cysteine pairing not given here
B9: KALI-30 (designed binder)
chain: B1 chain with D11E, H18I, P19L
B10: KALI-8 (designed binder)
chain: B1 chain with D11L, H18I
B11: KALI-13 (designed binder)
chain: B1 chain with D11S, H18I
B12: KALI-46 (designed binder)
chain: B1 chain with D11E, H13R, A17S, H18I, P19L
B13: KALI-48 (designed binder)
chain: B1 chain with D11T, H18I
B14: KALI-EV (designed binder)
chain: B1 chain with D11E, F34V

Changes are numbered by the printed parent chain. Where no end group is shown, it is not given here.

For the first test, the target named is T1, Human Factor XIa (human, UniProt P03951). The test can be described thus: enzyme inhibition of FXIa, chromogenic substrate, fit to the tight-binding equation (apparent Ki*).
With B1, the Ki worked out at 5.7 nM.
With B2, the Ki amounted to 7.3 nM.
For the molecule B3, the Ki was found to be 8.2 nM.
Regarding B4, the Ki was 13.8 nM.
As for B5, the Ki came to 4.5 nM.
Consider B6, for which the Ki stood at 1.3 nM.
As for B7, the Ki stood at 4.1 nM.
As for B8, the Ki worked out at 11.7 nM.

The next test concerns the target T2, Human plasma kallikrein (human, UniProt P03952). In words: enzyme inhibition of plasma kallikrein, substrate S2302, fit to the tight-binding equation (apparent Ki*).
Procedure: Determination of the apparent equilibrium dissociation constants of selected Kunitz domains with plasma kallikrein and FXIa. The inhibitory activity is expressed as the fractional activity (inhibited rate/uninhibited rate) at varying inhibitor concentrations. The apparent equilibrium dissociation constants were determined by nonlinear regression analysis of the data to equation 1.
Plots of the fractional rate versus inhibitor concentration were fit by nonlinear regression analysis to Equation 1 to determine apparent equilibrium dissociation constants (K_i^*):
For B9, the Ki worked out at 0.258 nM.
Regarding B10, the Ki amounted to 0.074 nM.
On the same count and under the same terms, with B11 the figure was 0.203 nM.
On the same count and under the same terms, the value for B12 was 0.175 nM; that for B13 was 0.209 nM.

The target in another test is T2, Human plasma kallikrein. In words: enzyme inhibition of plasma kallikrein (apparent Ki*), against BPTI.
Regarding B3, the “fold more potent than BPTI” value came to 3000 fold.

A further test addresses T1, Human Factor XIa. In words: enzyme inhibition of FXIa, chromogenic substrate, fit to the tight-binding equation (apparent Ki*). The source holds these as a separate data set.
For B9, the Ki came out at 0.4 nM.
Still for that read-out and setting: the value for B10 was 0.3 nM.
B11: the Ki was 1.4 nM.
For the molecule B12, the Ki came out at 0.3 nM.
Take B13: the Ki was 0.7 nM.

The target in the next test is T2, Human plasma kallikrein. The test can be described thus: enzyme inhibition of plasma kallikrein, substrate S2302, fit to the tight-binding equation (apparent Ki*). The source holds these as a separate data set.
B1: the Ki came to 0.025 nM.
Still for that read-out and setting: the value for B2 was 0.98 nM; that for B3 was 0.015 nM; that for B4 was 0.2 nM.
B5: the Ki is 0.103 nM.
B6: the Ki came out at 0.043 nM.
As for B14, the Ki is 0.117 nM.
On to B7, for which the Ki is 0.166 nM.
The same measure, in the same setting: with B8 the figure was 0.136 nM.

The target of a further test is T2, Human plasma kallikrein. In words: enzyme inhibition of plasma kallikrein (apparent Ki*), against APPI.
B3: the “fold better inhibition than APPI” value was > 10000 fold.

A further test deals with T2, Human plasma kallikrein. The test can be described thus: enzyme inhibition of plasma kallikrein (apparent Ki*).
Regarding B1, the Ki is < 0.05 nM.
On to B3, for which the Ki was < 0.05 nM.
B6: the Ki is < 0.05 nM.
